# Measured values from PMC6140332.
# T1: ERG (33-479) R367K (UniProt P11308 33-479, R367K)
# T1 sequence: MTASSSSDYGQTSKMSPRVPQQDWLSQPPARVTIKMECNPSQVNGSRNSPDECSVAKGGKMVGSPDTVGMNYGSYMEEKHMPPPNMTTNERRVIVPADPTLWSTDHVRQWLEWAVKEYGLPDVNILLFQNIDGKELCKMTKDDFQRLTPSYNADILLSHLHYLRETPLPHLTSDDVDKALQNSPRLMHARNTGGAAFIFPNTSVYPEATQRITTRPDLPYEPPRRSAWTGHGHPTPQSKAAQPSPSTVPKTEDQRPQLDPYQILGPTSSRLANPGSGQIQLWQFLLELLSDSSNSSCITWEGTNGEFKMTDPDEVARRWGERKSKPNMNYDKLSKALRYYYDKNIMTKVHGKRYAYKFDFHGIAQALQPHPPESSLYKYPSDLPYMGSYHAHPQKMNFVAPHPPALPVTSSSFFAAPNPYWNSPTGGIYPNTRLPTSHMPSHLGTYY
# B1: IRD800-Py (polyomavirus enhancer probe) (dsDNA)
# DNA 1: GATCTTTAAGCAGGAAGTGACTAACTGACCGCAGGTGGATC
# DNA 2: GATCCACCTGCGGTCAGTTAGTCACTTCCTGCTTAAAGATC
# Target: T1, ERG (33-479) R367K
# Assay: EMSA
binder,measurement,value
B1,binding result,no binding
